The results in this text go back to patent US20250019430A1 (published 2025).

What is called Kd is the concentration at which binding is half-saturated.

What all share (assay): Octet BLI
Background: Biolayer interferometry detects binding as a change in optical thickness at a sensor tip.

The target of one assay is RETN-His (#S0995).
The next assay has as its target RETN-C-His (#S0995).
Another assay deals with T1, RETN-flag-His (human, UniProt Q9HD89 19-108).
T1 chain: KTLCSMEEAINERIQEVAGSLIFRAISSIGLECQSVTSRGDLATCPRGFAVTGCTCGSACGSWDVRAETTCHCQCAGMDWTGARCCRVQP

B1: 5A2-LS-2E10 (antibody, V domains shown)
VH: QVQLVQSGAEGRKPGSSVKVSCKVSGDTFSSYAISWVRQAPGQGLEWMGGIIPIFGAADYAQKFKGRVTISADESTSTAYMELSSLRSEDTAVYYCAKGPDYYGSFDPWGQGTLITVSS
VL: DIQMTQSPSSLSASVGDRVTITCRTSQTITNYLNWYQQKPGRAPKLLIFDASNLETGVPSRFSGSGSGTDFTLTISSLQPEDFATYFCQQSYNPGYTFGQGTKLEIKR
With B1, the affinity with RETN-His (#S0995), expressed as Kd, was 0.419 nM.

B2: 5A2-LS-2F11 (antibody, V domains shown)
VH: B1 VH
VL: DIQMTQSPSSLSASVGDRVTITCRASQSIGTYLNWYQQKPGKAPKLLIYDASSLEDGVPSRFSGSGSGTDFTLTISSLQPEDSATYYCQQSYTMPLYTFGQGTKLEIKR
Regarding B2, in the assay with RETN-His (#S0995), the affinity, expressed as Kd, was 0.443 nM.

B3: 5A2-LS-1F11 (antibody, V domains shown)
VH: B1 VH
VL: not shown
Molecule B3 showed a Kd with RETN-His (#S0995) of 0.958 nM.

B4: 5A2 (antibody, V domains shown)
VH: B1 VH
VL: DIQMTQSPSFLSASVGDRVTITCRASQYIGTYLAWYQQQPGKAPKLLIYGASILQNGVPSRFSGSASGTEFTLTISSLQPEDFATYYCQQADSFPLTFGGGTKVDIKR
Take B4: the Kd is 2.14 nM in the assay with RETN-C-His (#S0995) and 1.17 nM with RETN-His (#S0995).

B5: 5A2-LS-2D07 (antibody, V domains shown)
VH: B1 VH
VL: QSALTQPASVSGSPGQSVTISCTGTSSDIGRYNRVSWYQHHPGKAPKLIIYDVSNRPSGVSNRFSGSKSGNTASLTISGLQAGDESDYYCSAYTRSSTWVFGGGTKLTVLR
In the case of B5, in the assay with RETN-His (#S0995), the Kd was 0.49 nM.

B6: RETN-5A2 (antibody, V domains shown)
VH: B1 VH
VL: B4 VL
In the case of B6, binding in the assay with RETN-flag-His was characterised by a dissociation constant (Kd) of 2.1 nM.

B7: 5A2-LS-2B02 (antibody, V domains shown)
VH: B1 VH
VL: DIQMTQSPGTLSLSAGERATLSCRASQSVRGSYLAWYQQKPGQAPRLLIYGTSSRAPGIPDRFSGSGSGTDFTLTISSLEPEDFAVYYCQQRGDWLYTFGQGTKVEIKR
For the molecule B7, in the assay with RETN-His (#S0995), the Kd was found to be 0.452 nM.

B8: 5A2-LS-2G03 (antibody, V domains shown)
VH: B1 VH
VL: DIQMTQSPSSLSASVGDRVTITCQASQHVSSYLNWYQQKPGKAPKLLIYAASNLQSGVPSRFSGSGSGTDFTLTISSLQPDDFATYYCQQYDSYSSVYTFGPGTKLDIKR
For B8, the affinity with RETN-His (#S0995), expressed as Kd, was 0.311 nM.

B9: 5A2-LS-2H10 (antibody, V domains shown)
VH: B1 VH
VL: NFMLTQPASVSGSPGQSITISCTGSSSDVGGYNYVTWYQQHPGKAPQLIIYDVTKRPSGVSNRFSGSKSGNSASLTISGLQAEDEADYYCSSYSSSTFYVFGTGTKVTVLR
Regarding B9, the equilibrium dissociation constant (Kd) with RETN-His (#S0995) is 0.538 nM.
